# Target: T1, Y1R L26^NA/F28^NA mutant (printed L28^NA/F28^NA) (human, UniProt P25929 1-384, L26^N to A (the mutant's label is printed L28^NA; the same sentence names the …)
# T1 sequence (looked up): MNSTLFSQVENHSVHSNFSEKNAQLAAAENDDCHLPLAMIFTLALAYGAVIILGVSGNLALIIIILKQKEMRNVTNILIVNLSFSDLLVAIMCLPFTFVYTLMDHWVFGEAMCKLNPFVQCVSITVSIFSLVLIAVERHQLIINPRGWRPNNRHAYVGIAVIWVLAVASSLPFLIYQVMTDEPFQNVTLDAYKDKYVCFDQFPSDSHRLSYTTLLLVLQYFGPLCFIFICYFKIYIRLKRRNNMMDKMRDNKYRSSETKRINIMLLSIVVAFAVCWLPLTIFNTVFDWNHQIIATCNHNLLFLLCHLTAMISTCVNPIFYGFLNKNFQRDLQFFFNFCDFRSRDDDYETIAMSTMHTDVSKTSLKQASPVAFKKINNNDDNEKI
# Assay: cell-based or functional assay
binder,measurement,value
neuropeptide Y (NPY) (C-terminal amide (amidated C-terminal residue Y36)) peptide: not shown,"NPY signalling, increase in EC50 against wild-type Y1R",2.8 fold

# — publication PMC8844075, “Structural basis of neuropeptide Y signaling through Y1 receptor” (Nature Communications, 2022)
